T1: EsCas13d, nuclease-dead (Eubacterium siraeum, UniProt B0MS50, R295A;H300A;R849A;H854A)
T1 sequence: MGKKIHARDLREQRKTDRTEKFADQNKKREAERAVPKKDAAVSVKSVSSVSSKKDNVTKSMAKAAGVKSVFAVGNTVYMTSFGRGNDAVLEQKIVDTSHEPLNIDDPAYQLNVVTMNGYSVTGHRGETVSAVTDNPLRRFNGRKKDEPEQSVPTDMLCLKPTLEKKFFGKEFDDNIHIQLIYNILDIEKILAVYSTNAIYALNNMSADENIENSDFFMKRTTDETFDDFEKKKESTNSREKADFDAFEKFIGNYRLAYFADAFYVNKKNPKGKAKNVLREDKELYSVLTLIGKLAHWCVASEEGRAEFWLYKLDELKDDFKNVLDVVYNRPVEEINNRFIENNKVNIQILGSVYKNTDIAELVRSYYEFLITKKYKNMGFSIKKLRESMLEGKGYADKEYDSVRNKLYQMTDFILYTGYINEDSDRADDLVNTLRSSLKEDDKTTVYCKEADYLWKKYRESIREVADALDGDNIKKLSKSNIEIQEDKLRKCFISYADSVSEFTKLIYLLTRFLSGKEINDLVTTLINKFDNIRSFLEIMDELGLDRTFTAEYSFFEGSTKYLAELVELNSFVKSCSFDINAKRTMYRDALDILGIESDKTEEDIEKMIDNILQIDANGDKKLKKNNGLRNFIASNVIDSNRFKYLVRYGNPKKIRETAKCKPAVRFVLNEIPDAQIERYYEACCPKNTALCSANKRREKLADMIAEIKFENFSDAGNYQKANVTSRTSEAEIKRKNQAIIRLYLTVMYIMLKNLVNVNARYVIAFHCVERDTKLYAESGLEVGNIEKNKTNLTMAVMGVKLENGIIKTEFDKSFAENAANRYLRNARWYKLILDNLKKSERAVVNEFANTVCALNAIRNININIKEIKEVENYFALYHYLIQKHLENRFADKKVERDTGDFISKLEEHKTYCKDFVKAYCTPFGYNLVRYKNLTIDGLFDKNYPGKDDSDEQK

B1: target 1 insA 3' of 5,insC 3' of 3 (mixed)
RNA 1: CACCCGUGCAAAAAUGCAGGGGUCUAAAACUGAGCGGAUAACCUCUCUAUGG
RNA 2: GGGAAUGGAUCCACAUCUACGAAUUCGUACCAUAGAGAGGUUAUCCGACUCCACCGAGAUCGGAAGAGCACACGU
B2: target 1 MT 5'PFS AGA 3'PFS CCG (mixed)
RNA 1: CACCCGUGCAAAAAUGCAGGGGUCUAAAACUGAGCGGAUAACCUCUCUAUGG
RNA 2: GGGAAUGGAUCCACAUCUACGAAUUCAGACCAUAGAGAGGUUAUCCGCUCACCGAGAUCGGAAGAGCACACGU
B3: target 1 MT 5'PFS UAU 3'PFS UCC (mixed)
RNA 1: CACCCGUGCAAAAAUGCAGGGGUCUAAAACUGAGCGGAUAACCUCUCUAUGG
RNA 2: GGGAAUGGAUCCACAUCUACGAAUUCUAUCCAUAGAGAGGUUAUCCGCUCAUCCAGAUCGGAAGAGCACACGU
B4: target 1 MT 5'PFS GAC 3'PFS CCC (mixed)
RNA 1: CACCCGUGCAAAAAUGCAGGGGUCUAAAACUGAGCGGAUAACCUCUCUAUGG
RNA 2: GGGAAUGGAUCCACAUCUACGAAUUCGACCCAUAGAGAGGUUAUCCGCUCACCCAGAUCGGAAGAGCACACGU
B5: target 1 MT 5'PFS CAA 3'PFS CCC (mixed)
RNA 1: CACCCGUGCAAAAAUGCAGGGGUCUAAAACUGAGCGGAUAACCUCUCUAUGG
RNA 2: GGGAAUGGAUCCACAUCUACGAAUUCCAACCAUAGAGAGGUUAUCCGCUCACCCAGAUCGGAAGAGCACACGU
B6: target 1 MT 5'PFS CAA 3'PFS AAA (mixed)
RNA 1: CACCCGUGCAAAAAUGCAGGGGUCUAAAACUGAGCGGAUAACCUCUCUAUGG
RNA 2: GGGAAUGGAUCCACAUCUACGAAUUCCAACCAUAGAGAGGUUAUCCGCUCAAAAAGAUCGGAAGAGCACACGU
B7: target 1 MT 5'PFS GUA 3'PFS CAU (mixed)
RNA 1: CACCCGUGCAAAAAUGCAGGGGUCUAAAACUGAGCGGAUAACCUCUCUAUGG
RNA 2: GGGAAUGGAUCCACAUCUACGAAUUCGUACCAUAGAGAGGUUAUCCGCUCACAUAGAUCGGAAGAGCACACGU
B8: target 1 insG 3' of 19,insG 3' of 6 (mixed)
RNA 1: CACCCGUGCAAAAAUGCAGGGGUCUAAAACUGAGCGGAUAACCUCUCUAUGG
RNA 2: GGGAAUGGAUCCACAUCUACGAAUUCGUACCAUGAGAGAGGUUAUCCGGCUCACCGAGAUCGGAAGAGCACACGU
B9: target 1 MT 5'PFS AGA 3'PFS AAC (mixed)
RNA 1: CACCCGUGCAAAAAUGCAGGGGUCUAAAACUGAGCGGAUAACCUCUCUAUGG
RNA 2: GGGAAUGGAUCCACAUCUACGAAUUCAGACCAUAGAGAGGUUAUCCGCUCAAACAGAUCGGAAGAGCACACGU
B10: target 1 MT 5'PFS GCC 3'PFS UAU (mixed)
RNA 1: CACCCGUGCAAAAAUGCAGGGGUCUAAAACUGAGCGGAUAACCUCUCUAUGG
RNA 2: GGGAAUGGAUCCACAUCUACGAAUUCGCCCCAUAGAGAGGUUAUCCGCUCAUAUAGAUCGGAAGAGCACACGU
B11: target 1 MT 5'PFS GUA 3'PFS CAG (mixed)
RNA 1: CACCCGUGCAAAAAUGCAGGGGUCUAAAACUGAGCGGAUAACCUCUCUAUGG
RNA 2: GGGAAUGGAUCCACAUCUACGAAUUCGUACCAUAGAGAGGUUAUCCGCUCACAGAGAUCGGAAGAGCACACGU
B12: target 1 MT 5'PFS GUA 3'PFS CAA (mixed)
RNA 1: CACCCGUGCAAAAAUGCAGGGGUCUAAAACUGAGCGGAUAACCUCUCUAUGG
RNA 2: GGGAAUGGAUCCACAUCUACGAAUUCGUACCAUAGAGAGGUUAUCCGCUCACAAAGAUCGGAAGAGCACACGU
B13: target 1 MT 5'PFS UCC 3'PFS CCU (mixed)
RNA 1: CACCCGUGCAAAAAUGCAGGGGUCUAAAACUGAGCGGAUAACCUCUCUAUGG
RNA 2: GGGAAUGGAUCCACAUCUACGAAUUCUCCCCAUAGAGAGGUUAUCCGCUCACCUAGAUCGGAAGAGCACACGU
B14: target 1 MT 5'PFS UGC 3'PFS ACU (mixed)
RNA 1: CACCCGUGCAAAAAUGCAGGGGUCUAAAACUGAGCGGAUAACCUCUCUAUGG
RNA 2: GGGAAUGGAUCCACAUCUACGAAUUCUGCCCAUAGAGAGGUUAUCCGCUCAACUAGAUCGGAAGAGCACACGU
B15: target 1 insG 3' of 22,insU 3' of 2 (mixed)
RNA 1: CACCCGUGCAAAAAUGCAGGGGUCUAAAACUGAGCGGAUAACCUCUCUAUGG
RNA 2: GGGAAUGGAUCCACAUCUACGAAUUCGUACGCAUAGAGAGGUUAUCCGCUCUACCGAGAUCGGAAGAGCACACGU
B16: target 1 MT 5'PFS GUU 3'PFS AAC (mixed)
RNA 1: CACCCGUGCAAAAAUGCAGGGGUCUAAAACUGAGCGGAUAACCUCUCUAUGG
RNA 2: GGGAAUGGAUCCACAUCUACGAAUUCGUUCCAUAGAGAGGUUAUCCGCUCAAACAGAUCGGAAGAGCACACGU
B17: target 1 MT 5'PFS GUA 3'PFS CAC (mixed)
RNA 1: CACCCGUGCAAAAAUGCAGGGGUCUAAAACUGAGCGGAUAACCUCUCUAUGG
RNA 2: GGGAAUGGAUCCACAUCUACGAAUUCGUACCAUAGAGAGGUUAUCCGCUCACACAGAUCGGAAGAGCACACGU
B18: target 1 MT 5'PFS CAA 3'PFS CCG (mixed)
RNA 1: CACCCGUGCAAAAAUGCAGGGGUCUAAAACUGAGCGGAUAACCUCUCUAUGG
RNA 2: GGGAAUGGAUCCACAUCUACGAAUUCCAACCAUAGAGAGGUUAUCCGCUCACCGAGAUCGGAAGAGCACACGU
B19: target 1 MT 5'PFS AGA 3'PFS AAU (mixed)
RNA 1: CACCCGUGCAAAAAUGCAGGGGUCUAAAACUGAGCGGAUAACCUCUCUAUGG
RNA 2: GGGAAUGGAUCCACAUCUACGAAUUCAGACCAUAGAGAGGUUAUCCGCUCAAAUAGAUCGGAAGAGCACACGU
B20: target 1 MT 5'PFS CAA 3'PFS AUU (mixed)
RNA 1: CACCCGUGCAAAAAUGCAGGGGUCUAAAACUGAGCGGAUAACCUCUCUAUGG
RNA 2: GGGAAUGGAUCCACAUCUACGAAUUCCAACCAUAGAGAGGUUAUCCGCUCAAUUAGAUCGGAAGAGCACACGU
B21: target 1 MT 5'PFS ACU 3'PFS CAU (mixed)
RNA 1: CACCCGUGCAAAAAUGCAGGGGUCUAAAACUGAGCGGAUAACCUCUCUAUGG
RNA 2: GGGAAUGGAUCCACAUCUACGAAUUCACUCCAUAGAGAGGUUAUCCGCUCACAUAGAUCGGAAGAGCACACGU
B22: target 1 MT 5'PFS AGA 3'PFS CCU (mixed)
RNA 1: CACCCGUGCAAAAAUGCAGGGGUCUAAAACUGAGCGGAUAACCUCUCUAUGG
RNA 2: GGGAAUGGAUCCACAUCUACGAAUUCAGACCAUAGAGAGGUUAUCCGCUCACCUAGAUCGGAAGAGCACACGU
B23: target 1 MT 5'PFS GCC 3'PFS UAC (mixed)
RNA 1: CACCCGUGCAAAAAUGCAGGGGUCUAAAACUGAGCGGAUAACCUCUCUAUGG
RNA 2: GGGAAUGGAUCCACAUCUACGAAUUCGCCCCAUAGAGAGGUUAUCCGCUCAUACAGAUCGGAAGAGCACACGU
B24: target 1 MT 5'PFS UGC 3'PFS ACA (mixed)
RNA 1: CACCCGUGCAAAAAUGCAGGGGUCUAAAACUGAGCGGAUAACCUCUCUAUGG
RNA 2: GGGAAUGGAUCCACAUCUACGAAUUCUGCCCAUAGAGAGGUUAUCCGCUCAACAAGAUCGGAAGAGCACACGU
B25: target 1 MT 5'PFS CAA 3'PFS AAC (mixed)
RNA 1: CACCCGUGCAAAAAUGCAGGGGUCUAAAACUGAGCGGAUAACCUCUCUAUGG
RNA 2: GGGAAUGGAUCCACAUCUACGAAUUCCAACCAUAGAGAGGUUAUCCGCUCAAACAGAUCGGAAGAGCACACGU
B26: target 1 MT 5'PFS GCC 3'PFS UAA (mixed)
RNA 1: CACCCGUGCAAAAAUGCAGGGGUCUAAAACUGAGCGGAUAACCUCUCUAUGG
RNA 2: GGGAAUGGAUCCACAUCUACGAAUUCGCCCCAUAGAGAGGUUAUCCGCUCAUAAAGAUCGGAAGAGCACACGU
B27: target 1 MT 5'PFS UGC 3'PFS ACG (mixed)
RNA 1: CACCCGUGCAAAAAUGCAGGGGUCUAAAACUGAGCGGAUAACCUCUCUAUGG
RNA 2: GGGAAUGGAUCCACAUCUACGAAUUCUGCCCAUAGAGAGGUUAUCCGCUCAACGAGAUCGGAAGAGCACACGU
B28: target 1 MT 5'PFS UCC 3'PFS CCG (mixed)
RNA 1: CACCCGUGCAAAAAUGCAGGGGUCUAAAACUGAGCGGAUAACCUCUCUAUGG
RNA 2: GGGAAUGGAUCCACAUCUACGAAUUCUCCCCAUAGAGAGGUUAUCCGCUCACCGAGAUCGGAAGAGCACACGU

Biological target: T1, EsCas13d, nuclease-dead
Assay: crRNA (strand 1, pre-loaded); Mg2+; 40 mM Tris-HCl pH 7.5, 150 mM NaCl, 6 mM MgCl2, 1 mM DTT, 0.1% Tween-20, 0.2 mg/ml BSA; 25 C; 10 min per concentration, then washed
Conditions: tags: His6-TwinStrep-SUMO cleaved; N-terminal SNAP kept (SNAP-Surface 488); label: 3' end held by stalled T7 RNA polymerase

Point of comparison: B12, Kd 19.6 ± 2.3 nM. Against it:
- B1 — 1.6-fold lower, 12.3 ± 2.2 nM
- B2 — 1.9-fold higher, 37 ± 10.5 nM
- B3 — 1.8-fold higher, 36 ± 13.5 nM
- B4 — 1.9-fold higher, ~37 nM
- B5 — 1.6-fold higher, ~30.5 nM
- B6 — 2.2-fold higher, 43 ± 18 nM
- B7 — 1.6-fold lower, 12 ± 1.15 nM
- B8 — 3.9-fold higher, 76 ± 9 nM
- B9 — 4.6-fold higher, ~90 nM
- B10 — 1.8-fold lower, 10.8 ± 2.45 nM
- B11 — within error, 17.6 ± 2.25 nM
- B13 — within 1.5-fold, ~15 nM
- B14 — 1.8-fold lower, 10.8 ± 2.45 nM
- B15 — 1.5-fold higher, 29.7 ± 2.7 nM
- B16 — 2.7-fold higher, 52 ± 19 nM
- B17 — within error, 16.9 ± 2.35 nM
- B18 — within error, 24 ± 6.5 nM
- B19 — 3.1-fold higher, 61 ± 22 nM
- B20 — 2-fold lower, 9.8 ± 3.5 nM
- B21 — 4.1-fold higher, ~80 nM
- B22 — 3.3-fold higher, ~64.5 nM
- B23 — within error, 16 ± 5.5 nM
- B24 — within error, 23.5 ± 8.5 nM
- B25 — within 1.5-fold, ~27.5 nM
- B26 — within error, 16 ± 6 nM
- B27 — within error, 16.2 ± 4.65 nM
- B28 — within error, 18 ± 5 nM

Reference: publication PMC10786891, “Massively parallel profiling of RNA-targeting CRISPR-Cas13d”
